Experiments:
[1] = biological target: PD-1 expressed on cells (human); assay: flow cytometry, cells expressing PD-1
[2] = biological target: CD80 expressed on cells (Homo sapiens); assay: flow cytometry, cells expressing CD80
[3] = biological target: PD-1 expressed on cells (human); assay: flow cytometry, Jurkat/PD-1 cells
PD-1-Fc (Homo sapiens) = assay: ForteBio, PD-1-Fc
PD-1-Fc (Homo sapiens), sequence (chain, as listed by the source limits assumed): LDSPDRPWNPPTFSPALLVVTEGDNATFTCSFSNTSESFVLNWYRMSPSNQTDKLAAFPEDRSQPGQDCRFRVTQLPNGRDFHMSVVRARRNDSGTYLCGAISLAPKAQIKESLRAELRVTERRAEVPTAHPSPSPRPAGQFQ

PD-1 expressed on cells (human), sequence (chain, as listed by the source): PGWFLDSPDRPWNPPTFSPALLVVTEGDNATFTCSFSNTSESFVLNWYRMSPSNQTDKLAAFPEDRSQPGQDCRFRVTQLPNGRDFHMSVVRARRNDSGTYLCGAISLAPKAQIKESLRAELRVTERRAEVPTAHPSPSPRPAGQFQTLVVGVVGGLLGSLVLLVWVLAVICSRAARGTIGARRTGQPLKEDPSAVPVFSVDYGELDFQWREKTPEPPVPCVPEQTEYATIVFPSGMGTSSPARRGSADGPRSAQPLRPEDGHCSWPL
CD80 expressed on cells (Homo sapiens), sequence (chain, as listed by the source): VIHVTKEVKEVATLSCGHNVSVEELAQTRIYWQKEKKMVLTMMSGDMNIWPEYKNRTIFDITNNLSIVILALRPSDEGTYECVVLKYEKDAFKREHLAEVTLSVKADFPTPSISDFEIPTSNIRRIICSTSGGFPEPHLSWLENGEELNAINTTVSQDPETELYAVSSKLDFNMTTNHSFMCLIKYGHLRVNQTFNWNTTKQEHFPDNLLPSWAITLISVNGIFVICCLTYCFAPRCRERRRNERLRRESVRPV

B1: variant PD-L1 ECD-Fc I36S, M41K, M97L, K144Q, R195G, E200K, H202Q, L206F (Fc fusion)
chain: FTVTVPKDLYVVEYGSNMTIECKFPVEKQLDLAALSVYWEKEDKNIIQFVHGEEDLKVQHSSYRQRARLLKDQLSLGNAALQITDVKLQDAGVYRCLISYGGADYKRITVKVNAPYNKINQRILVVDPVTSEHELTCQAEGYPQAEVIWTSSDHQVLSGKTTTTNSKREEKLFNVTSTLRINTTTNEIFYCTFRGLDPEKNQTAEFVIPELPLAHPPNER
[1]
  MFI at 20 nM: 3500

B2: variant PD-L1 ECD-Fc K57R, S99G, L124S, K144Q (Fc fusion)
chain: FTVTVPKDLYVVEYGSNMTIECKFPVEKQLDLAALIVYWEMEDKNIIQFVHGEEDLRVQHSSYRQRARLLKDQLSLGNAALQITDVKLQDAGVYRCMIGYGGADYKRITVKVNAPYNKINQRISVVDPVTSEHELTCQAEGYPQAEVIWTSSDHQVLSGKTTTTNSKREEKLFNVTSTLRINTTTNEIFYCTFRRLDPEENHTAELVIPELPLAHPPNER
[1]
  Fold Change Compared to WT PD-L1: 0.7
[2]
  Fold Change Compared to WT PD-L1: 105

B3: variant PD-L1 ECD-Fc I36T, I83T, M97L, K144E, P198T (Fc fusion)
chain: FTVTVPKDLYVVEYGSNMTIECKFPVEKQLDLAALTVYWEMEDKNIIQFVHGEEDLKVQHSSYRQRARLLKDQLSLGNAALQTTDVKLQDAGVYRCLISYGGADYKRITVKVNAPYNKINQRILVVDPVTSEHELTCQAEGYPEAEVIWTSSDHQVLSGKTTTTNSKREEKLFNVTSTLRINTTTNEIFYCTFRRLDTEENHTAELVIPELPLAHPPNER
[1]
  MFI at 20 nM: 62

B4: variant PD-L2 IgV-Fc H15Q (Fc fusion)
chain: LFTVTVPKELYIIEQGSNVTLECNFDTGSHVNLGAITASLQKVENDTSPHRERATLLEEQLPLGKASFHIPQVQVRDEGQYQCIIIYGVAWDYKYLTLKVKA
[3]
  Fold increase over wildtype PD-L2 IgV-Fc: 1.63
  MFI at 50 nM: 16000
PD-1-Fc (Homo sapiens)
  Fortebio binding to PD-1-Fc Response Units (Response Units): 0.007

B5: variant PD-L2 IgV-Fc N24D (Fc fusion)
chain: LFTVTVPKELYIIEHGSNVTLECDFDTGSHVNLGAITASLQKVENDTSPHRERATLLEEQLPLGKASFHIPQVQVRDEGQYQCIIIYGVAWDYKYLTLKVKA
[3]
  Fold increase over wildtype PD-L2 IgV-Fc: 0.14
  MFI at 50 nM: 1410
PD-1-Fc (Homo sapiens)
  Fortebio binding to PD-1-Fc Response Units (Response Units): -0.039

B6: variant PD-L2 IgV-Fc E44D (Fc fusion)
chain: LFTVTVPKELYIIEHGSNVTLECNFDTGSHVNLGAITASLQKVDNDTSPHRERATLLEEQLPLGKASFHIPQVQVRDEGQYQCIIIYGVAWDYKYLTLKVKA
[3]
  Fold increase over wildtype PD-L2 IgV-Fc: 0.3
  MFI at 50 nM: 2930
PD-1-Fc (Homo sapiens)
  Fortebio binding to PD-1-Fc Response Units (Response Units): -0.006

B7: variant PD-L2 IgV-Fc V89D (Fc fusion)
chain: LFTVTVPKELYIIEHGSNVTLECNFDTGSHVNLGAITASLQKVENDTSPHRERATLLEEQLPLGKASFHIPQVQVRDEGQYQCIIIYGDAWDYKYLTLKVKA
[3]
  Fold increase over wildtype PD-L2 IgV-Fc: 0.34
  MFI at 50 nM: 3360
PD-1-Fc (Homo sapiens)
  Fortebio binding to PD-1-Fc Response Units (Response Units): 0.005

B8: variant PD-L2 IgV-Fc Q82R, V89D (Fc fusion)
chain: LFTVTVPKELYIIEHGSNVTLECNFDTGSHVNLGAITASLQKVENDTSPHRERATLLEEQLPLGKASFHIPQVQVRDEGQYRCIIIYGDAWDYKYLTLKVKA
[3]
  MFI at 50 nM: 45000

B9: variant PD-L2 IgV-Fc S67L, V89D (Fc fusion)
chain: LFTVTVPKELYIIEHGSNVTLECNFDTGSHVNLGAITASLQKVENDTSPHRERATLLEEQLPLGKALFHIPQVQVRDEGQYQCIIIYGDAWDYKYLTLKVKA
[3]
  MFI at 50 nM: 16000

B10: variant PD-L2 IgV-Fc S67L, I85F (Fc fusion)
chain: LFTVTVPKELYIIEHGSNVTLECNFDTGSHVNLGAITASLQKVENDTSPHRERATLLEEQLPLGKALFHIPQVQVRDEGQYQCIFIYGVAWDYKYLTLKVKA
[3]
  Fold increase over wildtype PD-L2 IgV-Fc: 0.05
  MFI at 50 nM: 529
PD-1-Fc (Homo sapiens)
  Fortebio binding to PD-1-Fc Response Units (Response Units): -0.005

B11: variant PD-L2 IgV-Fc H15Q, K65R (Fc fusion)
chain: LFTVTVPKELYIIEQGSNVTLECNFDTGSHVNLGAITASLQKVENDTSPHRERATLLEEQLPLGRASFHIPQVQVRDEGQYQCIIIYGVAWDYKYLTLKVKA
[3]
  Fold increase over wildtype PD-L2 IgV-Fc: 1.37
  MFI at 50 nM: 13500
PD-1-Fc (Homo sapiens)
  Fortebio binding to PD-1-Fc Response Units (Response Units): -0.001

B12: variant PD-L2 IgV-Fc H15Q, Q72H, V89D (Fc fusion)
chain: LFTVTVPKELYIIEQGSNVTLECNFDTGSHVNLGAITASLQKVENDTSPHRERATLLEEQLPLGKASFHIPHVQVRDEGQYQCIIIYGDAWDYKYLTLKVKA
[3]
  MFI at 50 nM: 12600

B13: variant PD-L2 IgV-Fc H15Q, Q82R, V89D (Fc fusion)
chain: LFTVTVPKELYIIEQGSNVTLECNFDTGSHVNLGAITASLQKVENDTSPHRERATLLEEQLPLGKASFHIPQVQVRDEGQYRCIIIYGDAWDYKYLTLKVKA
PD-1-Fc (Homo sapiens)
  Fortebio binding to PD-1-Fc Response Units (Response Units): 1.2

B14: variant PD-L2 IgV-Fc H15Q, C23S, I86T (Fc fusion)
chain: LFTVTVPKELYIIEQGSNVTLESNFDTGSHVNLGAITASLQKVENDTSPHRERATLLEEQLPLGKASFHIPQVQVRDEGQYQCIITYGVAWDYKYLTLKVKA
[3]
  MFI at 50 nM: 830

B15: variant PD-L2 IgV-Fc E44D, V89D, W91R (Fc fusion)
chain: LFTVTVPKELYIIEHGSNVTLECNFDTGSHVNLGAITASLQKVDNDTSPHRERATLLEEQLPLGKASFHIPQVQVRDEGQYQCIIIYGDARDYKYLTLKVKA
[3]
  MFI at 50 nM: 614

B16: variant PD-L2 IgV-Fc I13V, E44D, Q82R, V89D (Fc fusion)
chain: LFTVTVPKELYIVEHGSNVTLECNFDTGSHVNLGAITASLQKVDNDTSPHRERATLLEEQLPLGKASFHIPQVQVRDEGQYRCIIIYGDAWDYKYLTLKVKA
[3]
  Fold increase over wildtype PD-L2 IgV-Fc: 4.59
  MFI at 50 nM: 45200
PD-1-Fc (Homo sapiens)
  Fortebio binding to PD-1-Fc Response Units (Response Units): 1.28

B17: variant PD-L2 IgV-Fc I13V, H15Q, R76G, I85F (Fc fusion)
chain: LFTVTVPKELYIVEQGSNVTLECNFDTGSHVNLGAITASLQKVENDTSPHRERATLLEEQLPLGKASFHIPQVQVGDEGQYQCIFIYGVAWDYKYLTLKVKA
[3]
  Fold increase over wildtype PD-L2 IgV-Fc: 0.48
  MFI at 50 nM: 4740
PD-1-Fc (Homo sapiens)
  Fortebio binding to PD-1-Fc Response Units (Response Units): -0.04

B18: variant PD-L2 IgV-Fc H15Q, S67L, R76G, I85F (Fc fusion)
chain: LFTVTVPKELYIIEQGSNVTLECNFDTGSHVNLGAITASLQKVENDTSPHRERATLLEEQLPLGKALFHIPQVQVGDEGQYQCIFIYGVAWDYKYLTLKVKA
[3]
  Fold increase over wildtype PD-L2 IgV-Fc: 0.29
  MFI at 50 nM: 2870
PD-1-Fc (Homo sapiens)
  Fortebio binding to PD-1-Fc Response Units (Response Units): 0.025

B19: variant PD-L2 IgV-Fc H15Q, T47A, Q72H, R76G, I86T (Fc fusion)
chain: LFTVTVPKELYIIEQGSNVTLECNFDTGSHVNLGAITASLQKVENDASPHRERATLLEEQLPLGKASFHIPHVQVGDEGQYQCIITYGVAWDYKYLTLKVKA
[3]
  Fold increase over wildtype PD-L2 IgV-Fc: 3.26
  MFI at 50 nM: 32100
PD-1-Fc (Homo sapiens)
  Fortebio binding to PD-1-Fc Response Units (Response Units): 0.512

B20: variant PD-L2 IgV-Fc H15Q, E44D, R76G, I85F (Fc fusion)
chain: LFTVTVPKELYIIEQGSNVTLECNFDTGSHVNLGAITASLQKVDNDTSPHRERATLLEEQLPLGKASFHIPQVQVGDEGQYQCIFIYGVAWDYKYLTLKVKA
[3]
  MFI at 50 nM: 2880

B21: variant PD-L2 IgV-Fc H15Q, Q72H, Q74R, R76G, I86T (Fc fusion)
chain: LFTVTVPKELYIIEQGSNVTLECNFDTGSHVNLGAITASLQKVENDTSPHRERATLLEEQLPLGKASFHIPHVRVGDEGQYQCIITYGVAWDYKYLTLKVKA
[3]
  MFI at 50 nM: 4050

B22: variant PD-L2 IgV-Fc G28V, Q72H, R76G, I86T (Fc fusion)
chain: LFTVTVPKELYIIEHGSNVTLECNFDTVSHVNLGAITASLQKVENDTSPHRERATLLEEQLPLGKASFHIPHVQVGDEGQYQCIITYGVAWDYKYLTLKVKA
[3]
  Fold increase over wildtype PD-L2 IgV-Fc: 0.57
  MFI at 50 nM: 5560
PD-1-Fc (Homo sapiens)
  Fortebio binding to PD-1-Fc Response Units (Response Units): 0.003

B23: variant PD-L2 IgV-Fc H15Q, V89D (Fc fusion)
chain: LFTVTVPKELYIIEQGSNVTLECNFDTGSHVNLGAITASLQKVENDTSPHRERATLLEEQLPLGKASFHIPQVQVRDEGQYQCIIIYGDAWDYKYLTLKVKA
[3]
  Fold increase over wildtype PD-L2 IgV-Fc: 1.8
  MFI at 50 nM: 17700
PD-1-Fc (Homo sapiens)
  Fortebio binding to PD-1-Fc Response Units (Response Units): 0.31

B24: variant PD-L2 IgV-Fc H15Q, T47A (Fc fusion)
chain: LFTVTVPKELYIIEQGSNVTLECNFDTGSHVNLGAITASLQKVENDASPHRERATLLEEQLPLGKASFHIPQVQVRDEGQYQCIIIYGVAWDYKYLTLKVKA
[3]
  Fold increase over wildtype PD-L2 IgV-Fc: 2.7
  MFI at 50 nM: 26600
PD-1-Fc (Homo sapiens)
  Fortebio binding to PD-1-Fc Response Units (Response Units): 0.016

B25: variant PD-L2 IgV-Fc I13V, H15Q, T47A, R76G, V89D (Fc fusion)
chain: LFTVTVPKELYIVEQGSNVTLECNFDTGSHVNLGAITASLQKVENDASPHRERATLLEEQLPLGKASFHIPQVQVGDEGQYQCIIIYGDAWDYKYLTLKVKA
PD-1-Fc (Homo sapiens)
  Fortebio binding to PD-1-Fc Response Units (Response Units): 1.6

B26: variant PD-L2 IgV-Fc I13V, H15Q, T47A, Q82R, V89D (SEQ ID NO 725) (Fc fusion)
chain: LFTVTVPKELYIVEQGSNVTLECDFDTGSHVNLGAITASLQKVENDTSPHRERATLLEEQLPLGKASFHIPQVQVRDEGQYRCIIIYGDAWDYKYLTLKVKA
[3]
  Fold increase over wildtype PD-L2 IgV-Fc: 6.2
  MFI at 50 nM: 61000
PD-1-Fc (Homo sapiens)
  Fortebio binding to PD-1-Fc Response Units (Response Units): 1.45

B27: variant PD-L2 IgV-Fc H15Q, N24S, T47A, Q72H, R76G, V89D (Fc fusion)
chain: LFTVTVPKELYIIEQGSNVTLECSFDTGSHVNLGAITASLQKVENDASPHRERATLLEEQLPLGKASFHIPHVQVGDEGQYQCIIIYGDAWDYKYLTLKVKA
PD-1-Fc (Homo sapiens)
  Fortebio binding to PD-1-Fc Response Units (Response Units): 0.4

B28: variant PD-L2 IgV-Fc I13V, H15Q, E44V, T47A, Q82R, V89D (Fc fusion)
chain: LFTVTVPKELYIVEQGSNVTLECNFDTGSHVNLGAITASLQKVVNDASPHRERATLLEEQLPLGKASFHIPQVQVRDEGQYRCIIIYGDAWDYKYLTLKVKA
[3]
  MFI at 50 nM: 61000

B29: variant PD-L2 IgV-Fc I13V, H15Q, T37A, E44D, S48C, S67L, Q82R, V89D (Fc fusion)
chain: LFTVTVPKELYIVEQGSNVTLECNFDTGSHVNLGAIAASLQKVDNDTCPHRERATLLEEQLPLGKALFHIPQVQVRDEGQYRCIIIYGDAWDYKYLTLKVKA
PD-1-Fc (Homo sapiens)
  Fortebio binding to PD-1-Fc Response Units (Response Units): 1.25

B30: Wild Type PD-L2 IgV (Fc fusion)
chain: LFTVTVPKELYIIEHGSNVTLECNFDTGSHVNLGAITASLQKVENDTSPHRERATLLEEQLPLGKASFHIPQVQVRDEGQYQCIIIYGVAWDYKYLTLKVKA
[3]
  MFI at 50 nM: 9840
